A value given as a limit tells only on which side of the number the result lay.

Experimental findings from US20250277199, “NOVEL CRISPR-CAS NUCLEASES FROM METAGENOMES” (Brain Biotech AG, published 2025) are described below.

The data set addresses T1, BMC02 (uncultured bacterium (metagenome)).
T1 chain: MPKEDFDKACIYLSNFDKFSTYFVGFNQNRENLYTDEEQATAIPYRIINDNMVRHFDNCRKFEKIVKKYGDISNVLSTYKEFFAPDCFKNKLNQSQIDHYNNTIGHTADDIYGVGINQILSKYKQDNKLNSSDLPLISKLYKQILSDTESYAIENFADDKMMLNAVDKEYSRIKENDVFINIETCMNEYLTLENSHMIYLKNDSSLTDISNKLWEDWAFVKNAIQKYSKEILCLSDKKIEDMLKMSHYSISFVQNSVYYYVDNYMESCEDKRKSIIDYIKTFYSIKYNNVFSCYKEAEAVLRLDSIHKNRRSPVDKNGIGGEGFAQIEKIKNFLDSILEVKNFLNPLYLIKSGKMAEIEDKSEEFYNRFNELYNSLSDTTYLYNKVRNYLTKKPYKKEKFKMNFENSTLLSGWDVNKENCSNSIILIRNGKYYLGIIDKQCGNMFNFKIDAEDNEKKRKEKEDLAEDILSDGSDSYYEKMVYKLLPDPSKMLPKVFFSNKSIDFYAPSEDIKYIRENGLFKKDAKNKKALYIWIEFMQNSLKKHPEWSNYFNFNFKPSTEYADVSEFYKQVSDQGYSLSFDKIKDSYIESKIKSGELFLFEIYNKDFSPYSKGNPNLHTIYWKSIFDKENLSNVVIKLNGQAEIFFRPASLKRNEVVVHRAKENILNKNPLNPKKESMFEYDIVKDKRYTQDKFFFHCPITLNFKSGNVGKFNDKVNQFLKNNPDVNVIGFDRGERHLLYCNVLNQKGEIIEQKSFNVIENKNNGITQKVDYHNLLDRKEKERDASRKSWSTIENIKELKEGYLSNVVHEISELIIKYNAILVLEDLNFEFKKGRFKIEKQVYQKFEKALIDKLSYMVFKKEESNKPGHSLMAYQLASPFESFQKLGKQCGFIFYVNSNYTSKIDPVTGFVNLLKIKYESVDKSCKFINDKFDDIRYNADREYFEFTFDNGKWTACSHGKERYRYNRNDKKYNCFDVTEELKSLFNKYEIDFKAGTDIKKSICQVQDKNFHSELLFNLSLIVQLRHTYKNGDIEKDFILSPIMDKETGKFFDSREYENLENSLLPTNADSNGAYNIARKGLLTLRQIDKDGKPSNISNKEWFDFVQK
Description: cell_activity; PAM not stated; E. coli depletion, 30 C. In a few lines: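 E. coli carrying arabinose-induced (0.2%) BMC nuclease, grown at 30° C., made electrocompetent and electroporated with 50-100 ng plasmid carrying gRNA against malQ. Transformants plated on selective M9-glucose agar with kanamycin/ampicillin (± nourseothricin), and growth scored after 48 h at 30° C.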

B1: malQ gRNA (BMC stem-loop + 24 nt spacer) ; malQ protospacer (ssRNA ; dsDNA)
RNA: GAUUUCUACUAUUGUAGAUGUGGCGGUACGUUGAUGCAUCGCG
DNA 1: GTGGCGGTACGTTGATGCATCGCG
DNA 2: CGCGATGCATCAACGTACCGCCAC
As for B1, the activity was > 99.9 % colony reduction.
